Test results from publication PMC8787470, “Functional Irreplaceability of Escherichia coli and Shewanella oneidensis OxyRs Is Critically Determined by Intrinsic Differences in Oligomerization” (mBio, 2022).

Legend:
[1] = target: the molecule itself; assay: crystal structure; SoOxyR RD C203S crystallised at 20°C by hanging-drop vapor diffusion, 4.0 M ammonium acetate, 0.1 M Bis-Tris propane pH 7.0; six molecules in the asymmetric unit; interfaces listed with PDBePISA
[2] = target: the molecule itself; assay: native gel or EMSA; oligomers read from shifted bands of protein on DNA: 10 nM digoxigenin-labelled 188 bp katB promoter probe, various amounts of His6-OxyR variant, 4 mM Tris-HCl pH 8.0, 40 mM NaCl, 4 mM MgCl2, 4% glycerol, poly(dI-dC), room temperature 15 min, 7% native polyacrylamide gel

B1: SoOxyR RD_(C203S) (regulatory domain of Shewanella oneidensis OxyR, residues 91 to 304, C203S) (domain or fragment, UniProt Q8EHA1 91-304, looked up)
chain: EPMTGDIRLGCIPTIAPFLLSRVVKQCQQAYPEMSLLLKEDTTERLLDALGKGELDLLILALPVDTSGYHSMKVGIDPFKMVIHKDLVGGIHQPIDYQTLPDESIFLLQSEHSITGHAITACQLGDSAKVNPFAATSLHTLVQMVNSKLGTTFLPQMAIDAGILNDTDLVVMTPPGEAPYRDIGLVWRQTTSRILTFRTLGLLIQKLLTNETAQ
notes: OxyR of Shewanella oneidensis, regulatory domain (RD), residues 91 to 304 of the full-length protein, locked in the reduced form by C203S; Six molecules in the crystallographic asymmetric unit; also called RD_(C203S) of SoOxyR; SoOxyR^C203S RD
B1: binds [1].

B2: OxyR^Δ286− (SoOxyR truncation lacking all residues after 286) (domain or fragment, Shewanella oneidensis, UniProt Q8EHA1 1-286, looked up)
chain: MKNLPSLKNLYYLVNLHQEQNFNRAAKVCFVSQSTLSSGIQNLEEQLGHQLIERDHKSFMFTAIGEEVVQRSRKILTDVDDLVELVKNQGEPMTGDIRLGCIPTIAPFLLSRVVKQCQQAYPEMSLLLKEDTTERLLDALGKGELDLLILALPVDTSGYHSMKVGIDPFKMVIHKDLVGGIHQPIDYQTLPDESIFLLQSEHCITGHAITACQLGDSAKVNPFAATSLHTLVQMVNSKLGTTFLPQMAIDAGILNDTDLVVMTPPGEAPYRDIGLVWRQTTSRILT
notes: OxyR of Shewanella oneidensis, C-terminal truncation; the series is defined by SoOxyR^Δ283− (truncation lacking all residues after R283); also called SoOxyR^Δ286−; not shown: His6, N-terminal, kept
B2: binds [2].

B3: OxyR^Δ290− (SoOxyR truncation lacking all residues after 290) (domain or fragment, Shewanella oneidensis, UniProt Q8EHA1 1-290, looked up)
chain: MKNLPSLKNLYYLVNLHQEQNFNRAAKVCFVSQSTLSSGIQNLEEQLGHQLIERDHKSFMFTAIGEEVVQRSRKILTDVDDLVELVKNQGEPMTGDIRLGCIPTIAPFLLSRVVKQCQQAYPEMSLLLKEDTTERLLDALGKGELDLLILALPVDTSGYHSMKVGIDPFKMVIHKDLVGGIHQPIDYQTLPDESIFLLQSEHCITGHAITACQLGDSAKVNPFAATSLHTLVQMVNSKLGTTFLPQMAIDAGILNDTDLVVMTPPGEAPYRDIGLVWRQTTSRILTFRTL
notes: OxyR of Shewanella oneidensis, C-terminal truncation; the series is defined by SoOxyR^Δ283− (truncation lacking all residues after R283); also called SoOxyR^Δ290−; not shown: His6, N-terminal, kept
With B3 the “stoichiometry N” value [2] was 4.

B4: OxyR_(R288E+F287A) (SoOxyR double point mutant) (natural protein, Shewanella oneidensis, UniProt Q8EHA1 1-304, looked up)
chain: MKNLPSLKNLYYLVNLHQEQNFNRAAKVCFVSQSTLSSGIQNLEEQLGHQLIERDHKSFMFTAIGEEVVQRSRKILTDVDDLVELVKNQGEPMTGDIRLGCIPTIAPFLLSRVVKQCQQAYPEMSLLLKEDTTERLLDALGKGELDLLILALPVDTSGYHSMKVGIDPFKMVIHKDLVGGIHQPIDYQTLPDESIFLLQSEHCITGHAITACQLGDSAKVNPFAATSLHTLVQMVNSKLGTTFLPQMAIDAGILNDTDLVVMTPPGEAPYRDIGLVWRQTTSRILTAETLGLLIQKLLTNETAQ
notes: OxyR of Shewanella oneidensis, the whole protein with two point mutations in helix α10; also called SoOxyR_(R288E-F287A); not shown: His6, N-terminal, kept
In the case of B4, the “stoichiometry N” value [2] is reported as 4.
